Earlier results on one substance are cited in paper PMC6457457.

For orientation: Kd means a measure of binding affinity in units of concentration.

The target in the data set is LC8 (Homo sapiens) (UniProt P63167).
Sequence of UniProt P63167 (P63167 whole entry): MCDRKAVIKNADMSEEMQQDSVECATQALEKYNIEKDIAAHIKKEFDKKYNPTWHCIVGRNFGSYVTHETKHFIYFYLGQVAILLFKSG

Turning to VP35 (from UniProt Q6V1Q9), the Kd was 82.4 nM.
